Measurements taken from patent US20120100139A1 (APTEVO RESEARCH AND DEVELOPMENT, published 2012).

T1: CD86-mIgG (Ancell, Inc) (UniProt P42081 24-247, limits assumed)
T1 construct: Bought reagent
T1 sequence (looked up): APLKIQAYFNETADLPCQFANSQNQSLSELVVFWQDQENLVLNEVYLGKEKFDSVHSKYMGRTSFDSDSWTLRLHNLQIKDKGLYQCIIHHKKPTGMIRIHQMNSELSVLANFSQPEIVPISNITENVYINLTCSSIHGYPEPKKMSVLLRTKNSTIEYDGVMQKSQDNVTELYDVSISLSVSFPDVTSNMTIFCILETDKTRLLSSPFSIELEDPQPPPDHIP


Columns and labels:
CD86-mIgG (Ancell, Inc) [1] = molecular target: T1, CD86-mIgG (Ancell, Inc); assay: SPR (BIAcore T100), CD86-mIgG immobilized on CM5; first site
Method: (§1) SPR measurements were performed on a BIAcore™ T100 SPR (Pharmacia Biotech AB, Uppsala) using HBS-EP+ (GE Healthcare) as a running buffer. […] CTLA4-containing constructs were injected for 150 seconds, at a flow rate of 10 μl/min, in a series of concentrations from 4 nM to 10 μM. Dissociation was monitored for 600 seconds, and the surface was either regenerated by injecting 50 mM sodium citrate, 500 mM sodium chloride, pH 5.0, for 60 seconds (wild type CTLA4) or 10 mM glycine, pH 1.7 (L104E A29Y CTLA4). […] Data were analyzed using BiaEvaluation for the T100 software (version 2.0.1, GE Healthcare).
(§2) SPR measurements were performed as listed above, with the following exceptions: HBS-P+ (GE Healthcare) was used as a running buffer; dissociation was monitored for 1200 seconds; and the surface was regenerated by injecting 10 mM glycine, pH 1.7, for 60 seconds.

CD86-mIgG (Ancell, Inc) [2] = molecular target: T1, CD86-mIgG (Ancell, Inc); assay: SPR (BIAcore T100), CD86-mIgG immobilized on CM5; second site
Method: as §1, §2

CD86-mIgG (Ancell, Inc) [3] = molecular target: T1, CD86-mIgG (Ancell, Inc); assay: SPR (BIAcore T100), CD86-mIgG immobilized on CM5; steady-state equilibrium fit
Method: as §1, §2

| Binder | koff (CD86-mIgG (Ancell, Inc) [1]) [s⁻¹] | kon (CD86-mIgG (Ancell, Inc) [1]) [M⁻¹ s⁻¹] | Second Site ka (CD86-mIgG (Ancell, Inc) [2]) [s⁻¹] | Second Site kd (CD86-mIgG (Ancell, Inc) [2]) [s⁻¹] | Kd (CD86-mIgG (Ancell, Inc) [3]) [nM] |
| --- | --- | --- | --- | --- | --- |
| FUN1 mAb (parent murine anti-CD86 monoclonal antibody) (antibody, V domains shown, Murine monoclonal antibody; also called FUN1 antibody) VH: EVQLQQSGPELEKPGASVKISCKASGYSFTDYNMNWVKQSNGKSLEWIGNIDPYYGGTSYNQKFKGKATLTVDKSSSTAYMQLNSLTSEDSAVYFCARWDYRYDDGRAYYVMDFWGQGTSVTVSS VL: ELQMTQSPSSLAASAGEKVTMSCKSSQSVLYSSNQKNYLAWYQQKPGQSPKLLIYWASTRESGVPDRFTGSGSGTHFTLTVSSVQAEDLAVYYCHQYLYSWTFGGGTNLEIKR | 2.28e-05 | 129000 | 0.00278 | 0.0154 | 36 |
| FUN1-21 PIMS (Fc fusion, PIMS: humanized FUN1-21 scFv at the carboxy-terminus) EPKSSDKTHTCPPCPAPEAAGAPSVFLFPPKPKDTLMISRTPEVTCVVVDVSHEDPEVKFNWYVDGVEVHNAKTKPREEQYNSTYRVVSVLTVLHQDWLNGKAYACAVSNKALPAPIEKTISKAKGQPREPQVYTLPPSRDELTKNQVSLTCLVKGFYPSDIAVEWESNGQPENNYKTTPPVLDSDGSFFLYSKLTVDKSRWQQGNVFSCSVMHEALHNHYTQKSLSLSPGNSLFNQEVQIPLTESYSPNSQVQLVQSGAEVKKPGASVKVSCKASGYTFTDYNMNWVRQAPGQGLEWMGNIDPYYGGTSYNQKFKGRVTMTRDTSISTAYMELSRLRSDDTAVYYCARWDYRYDDGRAYYVMDFWGQGTTVTVSSGGGGSGGGGSGGGGSGGGGSDIVMTQSPDSLAVSLGERATINCKSSQSVLYSSNQKNYLAWYQQKPGQPPKLLIYWASTRESGVPDRFSGSGSGTDFTLTISSLQAEDVAVYYCHQYLYSWTFGQGTKLEIKR | 9.1e-05 | 50000 | 0.00113 | 0.00837 | 70.9 |
| IL10::3D1 xceptor (Fc fusion) SPGQGTQSENSCTHFPGNLPNMLRDLRDAFSRVKTFFQMKDQLDNLLLKESLLEDFKGYLGCQALSEMIQFYLEEVMPQAENQDPDIKAHVNSLGENLKTLRLRLRRCHRFLPCENKSKAVEQVKNAFNKLQEKGIYKAMSEFDIFINYIEAYITMKIRNLEPKSSDKTHTCPPCPAPEAAGAPSVFLFPPKPKDTLMISRTPEVTCVVVDVSHEDPEVKFNWYVDGVEVHNAKTKPREEQYNSTYRVVSVLTVLHQDWLNGKAYACAVSNKALPAPIEKTISKAKGQPREPQVYTLPPSRDELTKNQVSLTCLVKGFYPSDIAVEWESNGQPENNYKTTPPVLDSDGSFFLYSKLTVDKSRWQQGNVFSCSVMHEALHNHYTQKSLSLSPGNSLFNQEVQIPLTESYSPNSQVQLQQSGPELVRPGESVKISCKGSGYTFTDYAIQWVKQSHAKSLEWIGVINIYYDNTNYNQKFKGKATMTVDKSSSTAYMELARLTSEDSAIYYCARAAWYMDYWGQGTSVTVSSGGGGSGGGGSGGGGSGGGGSDIVLSQSPSSLAVSAGEKVTMSCKSSQSLLNSRTRENYLAWYQQKPGQSPKLLIYWASTRESGVPDRFTGSGSGTDFTLTISSVQAEDLAVYYCTQSYNLYTFGGGTKLEIK | 8.3e-05 | 617000 | 0.0124 | 0.102 | 35.7 |
| FUN1-11 humanized FUN1 SMIP (Fc fusion, SMIP: scFv-hinge-Fc single chain) EVQLVQSGAEVKKPGATVKISCKVSGYTFTDYNMNWVQQAPGKGLEWMGNIDPYYGGTSYNQKFKGRVTITADTSTDTAYMELSSLRSEDTAVYYCATWDYRYDDGRAYYVMDFWGQGTTVTVSSGGGGSGGGGSGGGGSGGGGSDIVMTQSPDSLAVSLGERATINCKSSQSVLYSSNQKNYLAWYQQKPGQPPKLLIYWASTRESGVPDRFSGSGSGTDFTLTISSLQAEDVAVYYCHQYLYSWTFGQGTKLEIKRLEPKSSDKTHTCPPCPAPEAAGAPSVFLFPPKPKDTLMISRTPEVTCVVVDVSHEDPEVKFNWYVDGVEVHNAKTKPREEQYNSTYRVVSVLTVLHQDWLNGKAYACAVSNKALPAPIEKTISKAKGQPREPQVYTLPPSRDELTKNQVSLTCLVKGFYPSDIAVEWESNGQPENNYKTTPPVLDSDGSFFLYSKLTVDKSRWQQGNVFSCSVMHEALHNHYTQKSLSLSPG | 0.00035 | 13900 | 7.5e-05 | 1.25e-06 | 119 |

Binders with a lower Kd (CD86-mIgG (Ancell, Inc) [3]), results first:

| koff (CD86-mIgG (Ancell, Inc) [1]) [s⁻¹] | kon (CD86-mIgG (Ancell, Inc) [1]) [M⁻¹ s⁻¹] | Second Site ka (CD86-mIgG (Ancell, Inc) [2]) [s⁻¹] | Second Site kd (CD86-mIgG (Ancell, Inc) [2]) [s⁻¹] | Kd (CD86-mIgG (Ancell, Inc) [3]) [nM] | Binder |
| --- | --- | --- | --- | --- | --- |
| 2.37e-05 | 112000 | 0.00077 | 0.00377 | 28 | SEQ ID NO: 328 (Fc fusion, also called 3D1 PIMS (probably)) EPKSSDKTHTCPPCPAPEAAGAPSVFLFPPKPKDTLMISRTPEVTCVVVDVSHEDPEVKFNWYVDGVEVHNAKTKPREEQYNSTYRVVSVLTVLHQDWLNGKAYACAVSNKALPAPIEKTISKAKGQPREPQVYTLPPSRDELTKNQVSLTCLVKGFYPSDIAVEWESNGQPENNYKTTPPVLDSDGSFFLYSKLTVDKSRWQQGNVFSCSVMHEALHNHYTQKSLSLSPGNSLFNQEVQIPLTESYSPNSQVQLQQSGPELVRPGESVKISCKGSGYTFTDYAIQWVKQSHAKSLEWIGVINIYYDNTNYNQKFKGKATMTVDKSSSTAYMELARLTSEDSAIYYCARAAWYMDYWGQGTSVTVSSGGGGSGGGGSGGGGSGGGGSDIVLSQSPSSLAVSAGEKVTMSCKSSQSLLNSRTRENYLAWYQQKPGQSPKLLIYWASTRESGVPDRFTGSGSGTDFTLTISSVQAEDLAVYYCTQSYNLYTFGGGTKLEIK |
| 0.000139 | 186000 | 0.00578 | 0.0127 | 26.9 | FUN1-21 humanized FUN1 SMIP (Fc fusion, SMIP: scFv-hinge-Fc single chain) QVQLVQSGAEVKKPGASVKVSCKASGYTFTDYNMNWVRQAPGQGLEWMGNIDPYYGGTSYNQKFKGRVTMTRDTSISTAYMELSRLRSDDTAVYYCARWDYRYDDGRAYYVMDFWGQGTTVTVSSGGGGSGGGGSGGGGSGGGGSDIVMTQSPDSLAVSLGERATINCKSSQSVLYSSNQKNYLAWYQQKPGQPPKLLIYWASTRESGVPDRFSGSGSGTDFTLTISSLQAEDVAVYYCHQYLYSWTFGQGTKLEIKRLEPKSSDKTHTCPPCPAPEAAGAPSVFLFPPKPKDTLMISRTPEVTCVVVDVSHEDPEVKFNWYVDGVEVHNAKTKPREEQYNSTYRVVSVLTVLHQDWLNGKAYACAVSNKALPAPIEKTISKAKGQPREPQVYTLPPSRDELTKNQVSLTCLVKGFYPSDIAVEWESNGQPENNYKTTPPVLDSDGSFFLYSKLTVDKSRWQQGNVFSCSVMHEALHNHYTQKSLSLSPG |
| 7.06e-05 | 974000 | 0.0094 | 0.0462 | 26.5 | 3D1::IL10 xceptor (Fc fusion, anti-CD86 3D1 scFv - Fc - IL10) QVQLQQSGPELVRPGESVKISCKGSGYTFTDYAIQWVKQSHAKSLEWIGVINIYYDNTNYNQKFKGKATMTVDKSSSTAYMELARLTSEDSAIYYCARAAWYMDYWGQGTSVTVSSGGGGSGGGGSGGGGSGGGGSDIVLSQSPSSLAVSAGEKVTMSCKSSQSLLNSRTRENYLAWYQQKPGQSPKLLIYWASTRESGVPDRFTGSGSGTDFTLTISSVQAEDLAVYYCTQSYNLYTFGGGTKLEIKLEPKSSDKTHTCPPCPAPEAAGAPSVFLFPPKPKDTLMISRTPEVTCVVVDVSHEDPEVKFNWYVDGVEVHNAKTKPREEQYNSTYRVVSVLTVLHQDWLNGKAYACAVSNKALPAPIEKTISKAKGQPREPQVYTLPPSRDELTKNQVSLTCLVKGFYPSDIAVEWESNGQPENNYKTTPPVLDSDGSFFLYSKLTVDKSRWQQGNVFSCSVMHEALHNHYTQKSLSLSPGNSLFNQEVQIPLTESYSPNSSPGQGTQSENSCTHFPGNLPNMLRDLRDAFSRVKTFFQMKDQLDNLLLKESLLEDFKGYLGCQALSEMIQFYLEEVMPQAENQDPDIKAHVNSLGENLKTLRLRLRRCHRFLPCENKSKAVEQVKNAFNKLQEKGIYKAMSEFDIFINYIEAYMTMKIRN |
| 4.4e-05 | 323000 | 0.0055 | 0.0276 | 11.7 | 3D1 SMIP (Fc fusion, SMIP: murine 3D1 scFv at the N-terminus of a hinge-Fc single chain) QVQLQQSGPELVRPGESVKISCKGSGYTFTDYAIQWVKQSHAKSLEWIGVINIYYDNTNYNQKFKGKATMTVDKSSSTAYMELARLTSEDSAIYYCARAAWYMDYWGQGTSVTVSSGGGGSGGGGSGGGGSGGGGSDIVLSQSPSSLAVSAGEKVTMSCKSSQSLLNSRTRENYLAWYQQKPGQSPKLLIYWASTRESGVPDRFTGSGSGTDFTLTISSVQAEDLAVYYCTQSYNLYTFGGGTKLEIKLEPKSSDKTHTCPPCPAPEAAGAPSVFLFPPKPKDTLMISRTPEVTCVVVDVSHEDPEVKFNWYVDGVEVHNAKTKPREEQYNSTYRVVSVLTVLHQDWLNGKAYACAVSNKALPAPIEKTISKAKGQPREPQVYTLPPSRDELTKNQVSLTCLVKGFYPSDIAVEWESNGQPENNYKTTPPVLDSDGSFFLYSKLTVDKSRWQQGNVFSCSVMHEALHNHYTQKSLSLSPG |
